In patent US20090130114A1 (Amgen, published 2009):

T1: human WISE (human, UniProt Q6X4U4 24-206)
T1 construct: Recombinant, made in E. coli or mammalian cells; biotinylated in the ELISAs, amine-coupled to CM5 in Biacore; also called huWise; huWISE
T1 sequence: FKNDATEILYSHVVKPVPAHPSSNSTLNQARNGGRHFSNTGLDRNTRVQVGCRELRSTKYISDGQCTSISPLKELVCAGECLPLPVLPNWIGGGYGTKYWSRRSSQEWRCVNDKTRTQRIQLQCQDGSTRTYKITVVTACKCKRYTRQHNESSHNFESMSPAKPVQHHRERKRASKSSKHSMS

T2: mouse WISE (mouse, UniProt Q9CQN4 24-206)
T2 construct: Recombinant purified protein; also called muWISE; mWISE
T2 sequence: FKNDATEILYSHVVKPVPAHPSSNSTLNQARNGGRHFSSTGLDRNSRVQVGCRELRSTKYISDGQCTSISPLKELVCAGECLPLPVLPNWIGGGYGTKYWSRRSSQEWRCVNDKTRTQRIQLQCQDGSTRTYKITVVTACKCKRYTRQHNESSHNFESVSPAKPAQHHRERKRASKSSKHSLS


Legend:
human WISE = molecular target: T1, human WISE; assay: KinExA solution equilibrium, rhuWise-coated azlactone beads
Method: (§1) Binding of muAbs with rhuWise and rmuWise were tested on KinExA. Azlactone beads (Pierce) was pre-coated with rhuWise/rmuWise at pH9.0 and blocked with ethanolamine, then further washed with sample buffer (0.1 mg/mL Heparin in BSA/P20/PBS solution). 10 pM and 100 pM of Ab-A, Ab-C and Ab-E were incubated with various concentrations (0.1 pM-3 nM) of rhuWise/rmuWise at room temperature for at least 10 hours before run through the rhuWise/rmuWise coated beads.
(§2) The amount of the bead-bound muAbs were quantified by fluorescent (Cy5) labeled goat anti-mouse IgG (H+L) antibody (Jackson Immuno Research). The binding signal is proportional to the concentration of free muAbs at binding equilibrium. Equilibrium dissociation constant (Kd) was obtained from nonlinear regression of the competition curves using a two-curve one-site homogeneous binding model (KinExA™ Pro software).

[1] = molecular target: T3, T49 tryptic fragment of human WISE (human); assay: Biacore peptide competition, 3 nM antibody preincubated with 30 nM peptide
T3 construct: Multiply truncated human WISE from tryptic digestion, isolated by HPLC; the two pieces are held together by cystine-knot disulfide bonds (C1-C5, C2-C6, C3-C7); also called T49 peptide
Method: (§3) To identify which peptides compete with WISE for binding to the antibodies of the invention, rhuWise was immobilized on a CM5 surface with high density. 3 nM of mature antibodies Ab-A, Ab-C and Ab-E were pre-incubated with and without 30 nM peptides and huWise (as control), then injected over the huWise surfaces. As shown in FIGS. 9A and B both T49 and T56.1 peptides blocked the binding of the antibodies to huWISE.

[2] = molecular target: T4, T56.1 tryptic fragment of human WISE (human); assay: as above
T4 construct: Multiply truncated human WISE from tryptic digestion, isolated by HPLC; the two pieces are held together by cystine-knot disulfide bonds; also called T56.1 peptide
Method: as §3

mouse WISE = molecular target: T2, mouse WISE; assay: KinExA solution equilibrium, rmuWise-coated beads
Method: as §1, §2

[3] = molecular target: T3, T49 tryptic fragment of human WISE; assay: Biacore peptide competition (FIG. 9B)
Method: as §3

[4] = molecular target: T4, T56.1 tryptic fragment of human WISE; assay: Biacore peptide competition (FIG. 9B)
Method: as §3

Row | Kd (human WISE) [pM] | binding result [1] | binding result [2] | binding result (mouse WISE) | binding result [3] | binding result [4] | Binder
1 | ~2 | binds | binds | binds | – | – | Ab-A (antibody, V domains shown, Murine monoclonal antibody from hybridoma, tested in its mature form; The entries may still carry a signal peptide; also called Antibody A; antibody A) VH: QIHLVQSGPELKKPGETVKISCKASGFSFTTYGMSWVKQAPGKGLKWMGWINTYSGVPTYADDFKGRFAFSLETSASTAYLQINNLKNEDTATYFCVRGREYYYGSGIAFWGQGTLVTVSA VL: DVVMTQTPLSLPVSLGDQASISCRSSQSLEHSNGNTYLHWYLQKPGQSPKLLIYKVSNRFSGVPDRFSGSGSGTDFTLKISRVEAEDLGVYFCSQSTHVPLTFGAGTKVELKR
2 | ~4 | binds | binds | binds | – | – | Ab-C (antibody, V domains shown, Murine monoclonal antibody from hybridoma, tested in its mature form; also called Antibody C; antibody C) VH: QGQMQQSGAELVKPGASVQLSCKTSGFTFSSTYISWLKQKPGQSLEWIAWIYAGTGGTRYNRKFTGKAQLTVDTSSSTAYMQFSSLTTEDSAIYYCAREGVDGWFTYWGQGTLVTVSA VL: not shown
3 | ~18 | binds | binds | binds | – | – | Ab-E (antibody, mouse IgG1, kappa, V domains shown, Murine monoclonal antibody from hybridoma, tested in its mature form; polypeptide numbers 26 and 28 and the light/heavy assignment are inferred; also called Antibody E; antibody E) VH: QGQMQQSGAELVKPGASVKLSCKTSGFTFNSHYISWLKQKPGQTLEWIAWIYAGTGGTRYNQKFTGKAQLTVDTSSSTAYMQFSSLTTEDSAIYYCAREGVDGWFTYWGQGTLVTVSA VL: not shown
4 | – | – | – | – | binds | binds | Ab-P (antibody, V domains shown, also called Antibody P) VH: EVRLVESGGGLVQPGRSLKLSCAASGFPFSNYGMAWVRQAPTRGLEWVASITYDGSITFYRDSVKGRFTISRDNAKSTLYLQMDSLRSEDTATYYCTSSDTTDYYHGGFWFAYWGQGTLVTVSS VL: DIVLTQSPALAVSLGQRATLSCRASQSVSISGHNLMHWYQQKPGQQPKLLIYRASNLPSGIPARFSGSGSGTGFTLTINPVQADDIATYYCQQSRESPWTFGGGTTLELKR
